Measurements published in patent US20240270859A1 (HK INNO N, published 2024).
Where two headings read alike, the source gives them in different places.

T1: human OX40L protein (OX40L-his), Acro Biosystems Cat #OXL-H52Q8 (human, UniProt P23510 51-183)
T1 sequence: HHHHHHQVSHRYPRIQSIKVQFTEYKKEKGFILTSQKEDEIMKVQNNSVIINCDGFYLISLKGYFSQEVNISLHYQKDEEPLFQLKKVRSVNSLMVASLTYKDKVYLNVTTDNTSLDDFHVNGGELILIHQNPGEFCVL


Tests used:
[1] = target: T1, human OX40L protein (OX40L-his), Acro …; experiment: cell-based or functional assay
[2] = target: T1, human OX40L protein (OX40L-his), Acro …; experiment: SPR (Biacore T200), antibody captured by anti-hFc on CM5 chip, antigen as analyte
Description: A surface plasmon resonance (SPR) analysis was performed by using Bicore T200, and a running buffer used was HBS-EP (10 mM HEPES, pH7.4, 150 mM NaCl, 3 mM EDTA, […] surfactant P20). A human antibody capture kit (anti-hFc antibody) was fixed onto a surface of CM5 chip through an amine coupling method. […] An analytical sample was prepared with high purity/high concentration so that the minimum dilution factor could be 100 or more, thereby minimizing a buffer effect.

[3] = target: T1, human OX40L protein (OX40L-his), Acro …; experiment: cell-based or functional assay; remark: listed apart in the source
[4] = target: human TNFα (TNF-H5228 of Acro Biosystems) (human, UniProt P01375 77-233); experiment: cell-based or functional assay
Sequence of human TNFα (TNF-H5228 of Acro Biosystems) (P01375 77-233 limits assumed): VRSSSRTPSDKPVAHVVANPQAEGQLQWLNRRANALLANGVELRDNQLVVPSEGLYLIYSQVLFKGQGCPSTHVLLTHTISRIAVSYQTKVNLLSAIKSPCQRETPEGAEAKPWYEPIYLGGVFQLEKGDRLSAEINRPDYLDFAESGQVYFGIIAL

| Binder | IC50 (nM), OX40L blockade assay (luminescence of NFκB-luc2/OX40 Jurkat cells) [1] [nM] | IC50(µg/mL), OX40L blockade assay (luminescence of NFκB-luc2/OX40 Jurkat cells) [1] [µg/mL] | Kd [2] [pM] | koff [2] [s⁻¹] | kon [2] [M⁻¹ s⁻¹] | IC50 (nM), OX40L blockade assay (luminescence of NFκB-luc2/OX40 Jurkat cells) [3] [nM] | IC50 (nM), TNFα blockade assay (luminescence of NFκB-RE HEK293 cells) [4] [nM] |
| --- | --- | --- | --- | --- | --- | --- | --- |
| reference anti-OX40L antibody O4L (VH and VL of oxelumab) (antibody, human IgG4 S228P, kappa, V domains shown) VH: EVQLLESGGGLVQPGGSLRLSCAASGFTFNSYAMSWVRQAPGKGLEWVSIISGSGGFTYYADSVKGRFTISRDNSRTTLYLQMNSLRAEDTAVYYCAKDRLVAPGTFDYWGQGALVTVSS VL: DIQMTQSPSSLSASVGDRVTITCRASQGISSWLAWYQQKPEKAPKSLIYAASSLQSGVPSRFSGSGSGTDFTLTISSLQPEDFATYYCQQYNSYPYTFGQGTKLEIKR | 1.95 | 0.293 | – | – | – | – | – |
| anti-OX40L antibody Hu3F07 (antibody, human IgG4 S228P, kappa, V domains shown, Humanized; IgG4 S228P / kappa) VH: QVQLVQSGAEVKKPGASVKVSCKASGFTFPDYWMHWVRQAPGQGLEWMGEIDPPNGRTNYNEKFKSRVTMTRDTSISTAYMELSRLRSDDTAVYYCARGIYYVDYWGQGTTVTVSS VL: DIVMTQSPLSLPVTLGEPASISCRSSQSLVHSNGNTYLHWYLQKPGQSPQLLIYKVSNRFSGVPDRFSGSGSGTDFTLKISRVEAEDVGVYYCSQSTHVPPTFGGGTKLEIKR | 0.2 | 0.03 | 282 | 0.000357 | 1.27e+06 | – | – |
| anti-OX40L antibody 21G07 (antibody, human IgG4 S228P, kappa, V domains shown, Chimeric; IgG4 S228P / kappa) VH: QVQLQQSGAELVKPGASVKLSCKASGYTFTNYWMQWVKQRPGQGLEWIGEIDPSDGRTNYNEKFKNKATLTVDRSSSTAYIKLSSLTSEDSAVYYCAREVSLRSMDYWGQGTSVTVSS VL: DIVLTQSPLSLPVSLGDQASISCRSSQSLVHSNGNTYLHWYLQKPGQSPKLLIYKVSNRFSGVPDRFSGSGSGTDFTLKISRVEAEDLGVYFCSQSTHVPFTFGSGTKLEIKR | 0.85 | 0.128 | 603 | 0.00065 | 1.08e+06 | – | – |
| anti-OX40L antibody 10H07 (antibody, human IgG4 S228P, kappa, V domains shown, Chimeric; IgG4 S228P / kappa) VH: QVYLQQSGAELVKPGASVKLSCKASGYTFTDYWMHWVKQRPGQGLEWIGEIDPGNGRTNYNEKFKNKATLSVDKSSNTAYMQFSSLTSEDSAVFYCASEGAGRGFPYWGQGTLVTVSA VL: DVVLTQTPLSLPVSLGDQASISCRSSQSLVHSNGNTYLHWYLQKPGQSPKLLIYKVSNRFSGVPDRFSGSGSGTDFTLKISRVEAEDLGVYFCSQSTHVPWTFGGGTKLEIKR | 0.41 | 0.061 | 295 | 0.000498 | 1.69e+06 | – | – |
| bispecific antibody 02C09-TNFαi HC (bispecific antibody) heavy: not shown light: DIQMTQSPSSLSASLGDRVTITCRASQSIGRWLAWYQQKPGNAPKLLIYKATILESGVPSRFSGSGSGTEFALTISSLQPDDFSAYYCQQYNSYPYTFGQGTKLEIKRTVAAPSVFIFPPSDEQLKSGTASVVCLLNNFYPREAKVQWKVDNALQSGNSQESVTEQDSKDSTYSLSSTLTLSKADYEKHKVYACEVTHQGLSSPVTKSFNRGEC | 0.59 | 0.117 | 472 | – | – | – | – |
| bispecific antibody Hu3F07-TNFαi HC (bispecific antibody) heavy: not shown light: DIVMTQSPLSLPVTLGEPASISCRSSQSLVHSNGNTYLHWYLQKPGQSPQLLIYKVSNRFSGVPDRFSGSGSGTDFTLKISRVEAEDVGVYYCSQSTHVPPTFGGGTKLEIKRTVAAPSVFIFPPSDEQLKSGTASVVCLLNNFYPREAKVQWKVDNALQSGNSQESVTEQDSKDSTYSLSSTLTLSKADYEKHKVYACEVTHQGLSSPVTKSFNRGEC | 0.21 | 0.041 | 450 | – | – | – | – |
| bispecific antibody I3F07-TNFαi HC (bispecific antibody) heavy: not shown light: DIVLTQSPLSLPVSLGDQASISCRSSQSLVHSNGNTYLHWYLQKPGQSPKLLIYKVSNRFSGVPDRFSGSGSGTDFTLKISRVEAEDLGVYFCSQSTHVPPTFGGGSKLEIKRTVAAPSVFIFPPSDEQLKSGTASVVCLLNNFYPREAKVQWKVDNALQSGNSQESVTEQDSKDSTYSLSSTLTLSKADYEKHKVYACEVTHQGLSSPVTKSFNRGEC | – | – | – | – | – | 0.91 | 0.055 |
